Assay results published in patent publication US20160347808A1 (IMMATICS BIOTECHNOLOGIES, published 2016).

Target: T1, HLA-A*02:01 (peptide-receptive MHC class I monomer from UV-ligand exchange) (human)
T1 construct: Monomers were captured on streptavidin-coated plates
Experiment: UV-exchange ELISA (anti-b2m); exchange yield grade: + >=10%, ++ >=20%, +++ >=50%, ++++ >=75%
Description: Candidate peptides for T cell based therapies according to the present invention were further tested for their MHC binding capacity (affinity). The individual peptide-MHC complexes were produced by UV-ligand exchange, where a UV-sensitive peptide is cleaved upon UV-irradiation, and exchanged with the peptide of interest as analyzed. Only peptide candidates that can effectively bind and stabilize the peptide-receptive MHC molecules prevent dissociation of the MHC complexes. To determine the yield of the exchange reaction, an ELISA was performed based on the detection of the light chain (β2m) of stabilized MHC complexes. The assay was performed as generally described in Rodenko et al. (Rodenko et al., 2006).
96 well MAXISorp plates (NUNC) were coated over night with 2 ug/ml streptavidin in PBS at room temperature, washed 4× and blocked for 1 h at 37° C. in 2% BSA containing blocking buffer. Refolded HLA-A*02:01/MLA-001 monomers served as standards, covering the range of 15-500 ng/ml. Peptide-MHC monomers of the UV-exchange reaction were diluted 100 fold in blocking buffer. Samples were incubated for 1 h at 37° C., washed four times, incubated with 2 ug/ml HRP conjugated anti-β2m for 1 h at 37° C., washed again and detected with TMB solution that is stopped with […]. Absorption was measured at 450 nm. Candidate peptides that show a high exchange yield (preferably higher than 50%, most preferred higher than 75%) are generally preferred for a generation and production of antibodies or fragments thereof, and/or T cell receptors or fragments thereof, as they show sufficient avidity to the MHC molecules and prevent dissociation of the MHC complexes.

Binder | peptide exchange yield [%]
ALIKQLFEA (also called ZNF-002) [peptide ALIKQLFEA (SEQ ID NO 1)] | 50 to 75
RMYNKIFAI [peptide RMYNKIFAI (SEQ ID NO 10)] | 50 to 75
ILLTIKDDTIYL [peptide ILLTIKDDTIYL (SEQ ID NO 104)] | 50 to 75
YALDLSTFL [peptide YALDLSTFL (SEQ ID NO 105)] | 50 to 75
SLISEKILL [peptide SLISEKILL (SEQ ID NO 106)] | 50 to 75
ALLGGGPYML [peptide ALLGGGPYML (SEQ ID NO 107)] | 50 to 75
SLAELVPGVGGI [peptide SLAELVPGVGGI (SEQ ID NO 108)] | 50 to 75
ALDGDQMEL [peptide ALDGDQMEL (SEQ ID NO 109)] | 20 to 50
LLGELPRLLLL [peptide LLGELPRLLLL (SEQ ID NO 110)] | 50 to 75
KLGQVLIYL [peptide KLGQVLIYL (SEQ ID NO 112)] | 20 to 50
ILYDLQQNL [peptide ILYDLQQNL (SEQ ID NO 113)] | 20 to 50
TAVGHALVL [peptide TAVGHALVL (SEQ ID NO 114)] | 10 to 20
YLFEKTFNM [peptide YLFEKTFNM (SEQ ID NO 11)] | 50 to 75
SLFDVSHML [peptide SLFDVSHML (SEQ ID NO 115)] | 50 to 75
LVYQFVHPI [peptide LVYQFVHPI (SEQ ID NO 116)] | 20 to 50
TLQPVDNSTISL [peptide TLQPVDNSTISL (SEQ ID NO 117)] | 20 to 50
LLADLKTMV [peptide LLADLKTMV (SEQ ID NO 118)] | 50 to 75
ILYQTVTGL [peptide ILYQTVTGL (SEQ ID NO 119)] | 20 to 50
VLYEGVDEV [peptide VLYEGVDEV (SEQ ID NO 120)] | 20 to 50
SLAPNIISQL [peptide SLAPNIISQL (SEQ ID NO 121)] | 50 to 75
SLMGMVLKL [peptide SLMGMVLKL (SEQ ID NO 122)] | 50 to 75
KTLERSYLL [peptide KTLERSYLL (SEQ ID NO 123)] | 20 to 50

Binder | peptide exchange yield [%]
RVLPPSALQSV [peptide RVLPPSALQSV (SEQ ID NO 124)] | 50 to 75
ALVQGILERV [peptide ALVQGILERV (SEQ ID NO 12)] | 50 to 75
KLGDFGLLVEL [peptide KLGDFGLLVEL (SEQ ID NO 125)] | ≥ 75
TLAKYLMEL [peptide TLAKYLMEL (SEQ ID NO 126)] | 50 to 75
RLAELTVDEFLA [peptide RLAELTVDEFLA (SEQ ID NO 127)] | 50 to 75
MLDDRAYLV [peptide MLDDRAYLV (SEQ ID NO 128)] | 20 to 50
VLIDVLKEL [peptide VLIDVLKEL (SEQ ID NO 129)] | 50 to 75
GLGGSQLIDTHL [peptide GLGGSQLIDTHL (SEQ ID NO 130)] | 20 to 50
KLLDVVHPA [peptide KLLDVVHPA (SEQ ID NO 131)] | 20 to 50
ALLNAILHSA [peptide ALLNAILHSA (SEQ ID NO 132)] | 50 to 75
RTFEKIEEV [peptide RTFEKIEEV (SEQ ID NO 133)] | 20 to 50
GVAGGSILKGV [peptide GVAGGSILKGV (SEQ ID NO 134)] | ≥ 75
FLLAEDTKV [peptide FLLAEDTKV (SEQ ID NO 13)] | 50 to 75
KLQEEIPVL [peptide KLQEEIPVL (SEQ ID NO 135)] | 20 to 50
KLFDIFSQQV [peptide KLFDIFSQQV (SEQ ID NO 136)] | 50 to 75
QLTEIKPLL [peptide QLTEIKPLL (SEQ ID NO 137)] | 50 to 75
KQFEGTVEI [peptide KQFEGTVEI (SEQ ID NO 138)] | 50 to 75
VLLNEILEQV [peptide VLLNEILEQV (SEQ ID NO 139)] | 50 to 75
LLNEILEQV [peptide LLNEILEQV (SEQ ID NO 140)] | 50 to 75
AVIEHLERL [peptide AVIEHLERL (SEQ ID NO 141)] | ≥ 75
SLVQRVETI (also called ECT2-001) [peptide SLVQRVETI (SEQ ID NO 142)] | 50 to 75
KLSDVWKEL [peptide KLSDVWKEL (SEQ ID NO 143)] | 50 to 75

Binder | peptide exchange yield [%]
LLNDRIWLA [peptide LLNDRIWLA (SEQ ID NO 144)] | 50 to 75
FLDKPEDVLL [peptide FLDKPEDVLL (SEQ ID NO 14)] | 20 to 50
LLLEVVKQV [peptide LLLEVVKQV (SEQ ID NO 145)] | 50 to 75
ALSDETWGL [peptide ALSDETWGL (SEQ ID NO 146)] | 20 to 50
TLTELRAFL [peptide TLTELRAFL (SEQ ID NO 147)] | ≥ 75
RLLENMTEVV [peptide RLLENMTEVV (SEQ ID NO 148)] | 50 to 75
YQFDKVGILTL [peptide YQFDKVGILTL (SEQ ID NO 149)] | 50 to 75
RLADLEALKV [peptide RLADLEALKV (SEQ ID NO 150)] | 50 to 75
SAQGSDVSLTACKV [peptide SAQGSDVSLTACKV (SEQ ID NO 151)] | 50 to 75
KLLAVIHEL (also called RAD54B-002) [peptide KLLAVIHEL (SEQ ID NO 152)] | 20 to 50
ILFSEDSTKLFV [peptide ILFSEDSTKLFV (SEQ ID NO 153)] | 50 to 75
KLPSETIFVGC [peptide KLPSETIFVGC (SEQ ID NO 154)] | 50 to 75
LQLDKEFQL [peptide LQLDKEFQL (SEQ ID NO 15)] | 50 to 75
RLLGEEVVRV [peptide RLLGEEVVRV (SEQ ID NO 155)] | 50 to 75
SLMMTIINL [peptide SLMMTIINL (SEQ ID NO 156)] | ≥ 75
SLIERDLKL [peptide SLIERDLKL (SEQ ID NO 157)] | 50 to 75
GLLDPSVFHV [peptide GLLDPSVFHV (SEQ ID NO 158)] | 50 to 75
VLVDDDGIKVV [peptide VLVDDDGIKVV (SEQ ID NO 159)] | 20 to 50
KLLEFDQLQL [peptide KLLEFDQLQL (SEQ ID NO 160)] | 50 to 75
FLKNELDNV [peptide FLKNELDNV (SEQ ID NO 161)] | 50 to 75
KLMDYIDEL [peptide KLMDYIDEL (SEQ ID NO 162)] | 50 to 75
RLLHEVQEL [peptide RLLHEVQEL (SEQ ID NO 163)] | 50 to 75
